Common to all, as to assay: fluorescence polarisation
In general terms: In fluorescence polarisation assays a small probe gives low polarisation when free and higher when bound to something large.

The target of assay [1] is T1, histone H3 tail peptide (1–18) symmetrically dimethylated at Arg2 (H3R2me2s) (UniProt P68431 2-19).
T1 peptide (looked up): A[Arg(Me2s)]TKQTARKSTGGKAPRK

For assay [2], the target named is T2, histone H3 tail peptide (1–18) asymmetrically dimethylated at Arg2 (H3R2me2a) (UniProt P68431 2-19).
T2 peptide (looked up): A[Arg(Me2a)]TKQTARKSTGGKAPRK

The next assay concerns the target T3, GST-PHD1 W335A of KDM5A (UniProt P29375 291-347, W335A).
T3 sequence (looked up): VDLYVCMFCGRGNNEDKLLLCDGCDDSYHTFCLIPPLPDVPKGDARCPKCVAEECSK

Changes are numbered by the printed parent chain. Where no end group is shown, it is not given here. [ ]: non-standard residue; d: D form. Arg(Me2a) = CN(C)C(=N)NCCC[C@H](N)C(=O)O; Arg(Me2s) = CN=C(NC)NCCC[C@H](N)C(=O)O; fluorescent label = not defined here Some results are limits rather than exact numbers.

B1: GST-PHD1_(291–347) of KDM5A (domain or fragment, UniProt P29375 291-347, looked up)
chain: T3 sequence (looked up) with A45W
As for B1, the “fold reduction of binding affinity against unmodified H3” value in assay [1] and in assay [2] was roughly 5 fold in each case.

B2: histone H3 tail peptide H3_(1–18), unmethylated Lys4 (H3K4me0) (peptide, UniProt P68431 2-19, looked up)
peptide: ARTKQTARKSTGGKAPRK-{fluorescent label}
modifications: reading uncertain
One may read the Kd as the equilibrium constant for the complex coming apart. On to B2, for which, in the assay with GST-PHD1 W335A of KDM5A, the Kd was greater than 100 µM.

(Values after publication PMC5080983 (Nature communications, 2015).)
